Measurements published in paper PMC11469336.

Target: ribosomes (crude ribosome pellet)
Assay: co-sedimentation

## trimeric SEC61 complex (from UniProt P61619 1-476; P60468 1-96; P60059 1-68)
  half-time of dissociation after harringtonine (in wild-type cells): 15 min
  half-time of dissociation after puromycin (in wild-type cells): 1 min
